The values that follow come from patent US20230321192A1 (published 2023).

First the molecules themselves.
B3: Human IL-18BP (amino acids 31-194) (receptor)
chain: TPVSQTTTAATASVRSTKDPCPSQPPVFPAAKQCPALEVTWPEVEVPLNGTLSLSCVACSRFPNFSILYWLGNGSFIEHLPGRLWEGSTSRERGSTGTQLCKALVLEQLTPALHSTNFSCVLVDPEQVVQRHVVLAQLWAGLRATLPPTQEALPSSHSSPQQQGGLNDIFEAQKIEWHEHHHHHH
modifications: biotin on the AviTag (BirA ligase) where used biotinylated

The target in test [1] is B3. The experiment in a line: on-yeast binding isotherm, flow cytometry. A general note: In flow cytometry, cells or beads pass a laser one at a time.
The target in test [2] is T1, Human Interleukin-18 (mature form), wild-type (human, UniProt Q14116 37-193).
T1 sequence: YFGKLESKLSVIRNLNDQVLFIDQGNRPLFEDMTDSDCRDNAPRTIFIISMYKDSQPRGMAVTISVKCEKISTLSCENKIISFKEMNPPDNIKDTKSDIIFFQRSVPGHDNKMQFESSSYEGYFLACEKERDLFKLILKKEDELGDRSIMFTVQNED
Put plainly: cell-based or functional assay.

Test [3] addresses T2, Mouse IL-18BP (amino acids 31-194) (mouse, UniProt Q9Z0M9 29-193, biotin on the AviTag (BirA ligase)).
T2 construct: Secreted from Expi293 cells (H7 signal peptide); also called mIL-18BP
T2 sequence: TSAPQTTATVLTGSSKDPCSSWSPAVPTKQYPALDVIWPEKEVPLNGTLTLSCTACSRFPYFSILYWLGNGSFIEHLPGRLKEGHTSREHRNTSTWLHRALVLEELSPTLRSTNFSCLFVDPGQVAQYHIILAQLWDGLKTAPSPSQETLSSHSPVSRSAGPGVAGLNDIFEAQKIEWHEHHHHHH
Put plainly: SPR; end of the range tied to mA7 by Table 9. (Surface plasmon resonance follows binding to a sensor surface in real time, without labels.)

Test [4] addresses T2, Mouse IL-18BP (amino acids 31-194). Put plainly: SPR; end of the range tied to mC1 by Table 9.
For test [5] the target is unchanged. The experiment in a line: SPR. How it is done: Experiments were conducted using a Biacore T100 and carried out at 25° C. Biotinylated IL-18Rα or IL-18BP were immobilized onto a Biacore biotin capture chip (Series S CAP sensor chip, GE Healthcare) to yield an Rmax of ~50 RU (IL-18Rα) or ~10 RU (IL-18BP). Measurements were made with serial dilutions of the IL-18 variants in HEPES buffered Saline-P+ buffer (10 mM HEPES pH 7.4, 150 mM NaCl, 0.005% surfactant P20). The surface was regenerated by three 60-sec injections of regeneration buffer (¾ (v/v) 8 M guanidine hydrochloride with ¼ (v/v) 1 M sodium hydroxide). Experiments were performed in multiple channels simultaneously for increased observations. All data were analyzed with the Biacore T100 evaluation software version 2.0 with a 1:1 Langmuir binding model.
As the human and mouse interspecies cross-reactivity of IL-18 for IL-18Rα is poor, murine equivalents of the DR-IL-18 variants that could be used for studies in mice were created. Similar to the approach taken for hIL-18 above, a combinatorial library of mIL-18 variants randomizing a similar set of mIL-18Rα/mIL-18BP contact residues (Table 3) was created, yielding a library of 4 × 10⁸ transformants. Directed evolution was performed on this library similar to how it was performed with the human IL-18 library; the selection strategy is summarized in FIG. 10A.

Test [6] concerns the target T3, Mouse IL-18Rα ectodomain (amino acids 19-329) (mouse, UniProt Q61098 19-329, biotin on the AviTag (BirA ligase)).
T3 construct: range 19-329; Secreted from Expi293 cells (H7 signal peptide); also called mIL-18Rα; Ra
T3 sequence: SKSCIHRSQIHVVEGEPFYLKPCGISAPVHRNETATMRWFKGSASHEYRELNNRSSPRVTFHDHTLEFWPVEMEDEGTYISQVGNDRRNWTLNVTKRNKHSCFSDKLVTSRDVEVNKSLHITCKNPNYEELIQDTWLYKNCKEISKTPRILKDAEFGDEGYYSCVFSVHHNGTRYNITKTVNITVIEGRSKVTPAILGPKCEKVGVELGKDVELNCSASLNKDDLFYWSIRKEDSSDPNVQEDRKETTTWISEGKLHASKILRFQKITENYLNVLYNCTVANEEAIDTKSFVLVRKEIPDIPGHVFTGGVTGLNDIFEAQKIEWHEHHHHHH
The experiment in a line: SPR; end of the range tied to mE8 by Table 9.

For test [7], the target named is T2, Mouse IL-18BP (amino acids 31-194). Put plainly: SPR; KD ratio normalized to WT IL-18; lower end taken as mE8 (lowest ratio in Table 9).

B1: hA8 (ligand)
chain: YFGKLESRLSVIRNLNDQVLFIDQGNRPLFEDMTDSDCRDNAPRTIFIISKYKDKQPRAQAVTISVKCEKISTLSCENKIISFKEMNPPDNIKDTKSDIIFFQRDVPGHKHKMQFESSSYEGYFLACEKERDLFKLILKKEDELGDRSIMFTIQNED
notes: Human DR-IL-18 variant; display fusion not written
The term EC50 denotes the concentration giving half of the maximal effect. A higher EC50 goes with weaker potency. B1 had an EC50 in test [1] greater than 1 µM.

B2: hCS2 (ligand)
chain: YFGKLESKLSVIRNLNDQVLFIDQGNRPLFEDMTDSDCRDNAPRTIFIISTYKDKQPRAKAVTISVKCEKISTLSCENKIISFKEMNPPDNIKDTKSDIIFFQRDVPGHKHKMQFESSSYEGYFLACEKERDLFKLILKKEDELGDRSIMFTIQNED
notes: Human DR-IL-18 consensus variant; E. coli recombinant with C-terminal hexahistidine tag in SPR; fusion and tag not written
B2 returned an EC50 in test [1] greater than 1 µM.
On to B3, for which, in test [2], the “IC50 of recombinant IL-18BP on the IL-18 HEK-Blue reporter signal (hIL-18 fixed at 5 nM)” value stood at 0.003 µM.

B4: mA7 (ligand)
chain: YFGRLHCTTAVIRNINDQVLFVDKRQPVFEDMTDIDQSASEPQTRLIIYAYGDNRVRGKAVTLSVKDSKMSTLSCKNKIISFEEMDPPENIDDIQSDLIFFQKRVPGHNKMEFESSLYEGHFLACQKEDDAFKLILKKKDENGDKSVMFTLTNLHQS
notes: Murine DR-IL-18 variant; recombinant with C-terminal hexahistidine tag in SPR; fusion and tag not written
Usually Kd stands for the concentration at which binding is half-saturated. Read a high Kd as a looser complex. Molecule B4 displayed an equilibrium dissociation constant (Kd) in test [3] of 14 µM.

B5: mC1 (ligand)
chain: NFGRLHCTTAVIRNINDQVLFVDKRQPVFEDMTDIDQSASEPQTRLIIYAYVDRRLRGKAVTLSVKDSKMSTLSCKNKIISFEEMDPPENIDDIQSDLIFFQKKVPGHNKMEFESSLYEGHFLACQKEDDAFKLILKKKDENGDKSVMFTLTNLHQS
notes: as for B4
For B5, the dissociation constant Kd in test [4] was determined as 29 µM.

B6: mCS2 (ligand)
chain: HFGRLHCTTAVIRNINDQVLFVDKRQPVFEDMTDIDQSASEPQTRLIIYAYGDSRARGKAVTLSVKDSKMSTLSCKNKIISFEEMDPPENIDDIQSDLIFFQKRVPGHNKMEFESSLYEGHFLACQKEDDAFKLILKKKDENGDKSVMFTLTNLHQS
notes: Murine DR-IL-18 consensus variant; recombinant with C-terminal hexahistidine tag in SPR; fusion and tag not written
In test [5], B6 gave a dissociation constant (Kd) of 11 µM.

B7: mE8 (ligand)
chain: NFGRLHCTTAVIRNINDQVLFVDKRQPVFEDMTDIDQSASEPQTRLIIYVYTDGRRRGKAVTLSVKDSKMSTLSCKNKIISFEEMDPPENIDDIQSDLIFFQKKVPGHDKMEFESSLYEGHFLACQKEDDAFKLILKKKDENGDKSVMFTLTNLHQS
notes: as for B4
In test [6], B7 had a Kd of 0.0017 µM. In addition, the “IL-18 BP:Ra Dissociation Constant Ratio” value in test [7] came out at 9.3e+06.
